± gives the uncertainty stated by the source.
Assay: amyloid nucleation score (Sup35N fusion, yeast selection) (log enrichment); library NNK2; higher = more nucleation; inactive = no reads after selection
How it was run: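 Growth for 7 days at 30°C on medium lacking adenine and uracil followed a 24-hour induction with 100 μM copper sulfate of psi-negative yeast expressing peptides of 20 random codons fused to Sup35N. Input and output plasmid inserts were sequenced with Illumina, and sequences with under 100 input reads were excluded. Nucleation score is the DiMSum log enrichment of output over input reads, centred on the mode score of non-aggregating sequences.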

Substance	amyloid nucleation score
NQLRVLMTIFWPGMLNTPAV	0.622 ± 0.31
NQVSIIHWWAAYDYWSPM	-0.163 ± 0.6
NRAAKRGIRRHMSSYTYARV	0.153 ± 0.36
NRHMLNTDRRPQVRLHFGTL	0.232 ± 0.37
NRHPRRYRNNAGDDSLMRIL	1.74 ± 0.096
NRIFGTHLTFSGYS	-0.466 ± 0.5
NRLPFKYLSIDIYPCLASLA	-0.3 ± 0.26
NRMFLLVLFVEL	0.572 ± 0.27
NRSDPDLCNKC	1.96 ± 0.14
NRSIVYGYFQLYENFNWPFS	0.913 ± 0.19
NRSVCLYYFAQVYKCCSNAV	3.42 ± 0.14
NRTTSVWG	-0.889 ± 1
NRVGSIPIGPVFTADVAIVL	4.16 ± 0.091
NRVLSFPRWGAIYVYTMTEF	-0.892 ± 1.1
NRYVLCNLVVISVSGISLCT	7.249 ± 0.063
NSAVATYCVVGQVPEK	0.883 ± 0.44
NSEHTNLSSHLGNIRFINCL	0.037 ± 0.79
NSFMPMTWLPFRSQTEKRGS	3.73 ± 0.075
NSGCLSLGFRHLSNPWLHS	2.71 ± 0.096
NSHRKNHFIGGWDFTCEIYN	inactive
NSIGPTPGGN	0.123 ± 1
NSKTDSVHYYIDVLSPTHIF	-1.09 ± 0.78

Substance	amyloid nucleation score
NSLGRYSFRFVRCEGVWKTR	-0.88 ± 0.76
NSLVLFFSVGVLRL	1.37 ± 0.21
NSMTQFCIQCGGTTIAWSMF	6.663 ± 0.039
NSRGN	-0.293 ± 0.56
NSRLRRVYAGSARGAWTYRR	1.14 ± 0.38
NSRYPDRGILKLVV	0.409 ± 0.65
NSSMTRLGNTYLYHNNLHLV	-1.25 ± 0.76
NSSWSAPSLCLCM	9.527 ± 0.045
NSVFKGFLNRFRF	2.32 ± 0.19
NSVRSV	inactive
NSWWTVLFRFYKALSLPRAR	-0.839 ± 0.78
NTCMLRARVSVMQNEE	0.071 ± 0.35
NTIQCY	inactive
NTITIMHSDEYVMRVSYICQ	1.87 ± 0.2
NTLYSFVRGCKPRMEFNRVK	-0.965 ± 1
NTMELLFIGVWIAFWLN	inactive
NTTSARSERR	-0.212 ± 0.37
NVAMSCPRGRVPR	1.35 ± 0.38
NVCRVDMAEKFGSFRLCN	-0.846 ± 0.34
NVFMRYTKFYMCLELGNCWG	-0.331 ± 0.5
NVLDVGVGRTFVFK	-0.291 ± 0.79
NVLLNQNIMVLPGPLYFSIT	6.129 ± 0.054

Substance	amyloid nucleation score
NVMFF	1.28 ± 0.13
NVPCGYEWSFNLCIMGEASS	6.842 ± 0.049
NVPKSSINEWSLPDLLVLNV	0.923 ± 0.81
NVRSWYLDNLFLTFAVA	0.164 ± 0.63
NVSRGTKIDNMDRVYFYPEA	-0.055 ± 0.46
NVVQMMSVEFMPMVHVSAIL	4.23 ± 0.063
NVWVSDFVGERAGDLHLSLY	0.025 ± 1.1
NVYDRGVIGYMSNNVHTEGI	-1.07 ± 1.1
NVYVESSWVLARVIWRFYFD	-0.722 ± 0.62
NWGAWLNWFNLVIYGCRVIN	6.03 ± 0.079
NWGFISVLVALPWVWGLRPG	-0.387 ± 0.42
NWGMLLGCGGW	0.201 ± 0.8
NWHGSIFFIW	5.708 ± 0.049
NWLQFF	0.966 ± 0.13
NWMCMRCGVFVVLAVCLFWS	3.42 ± 0.075
NWSVTGCQLRGGRTEGNGIR	0.122 ± 0.5
NWWRD	-0.071 ± 0.43
NYDGVVVEDNVVGTRTSVAG	-0.007 ± 0.36
NYDRTIW	-1.01 ± 0.48
NYEGGCGVNGVMSVPAVRNP	0.082 ± 1
NYEGNGRVVITLLLGSNWYR	4.04 ± 0.086
NYFCIRS	4.11 ± 0.052

Substance	amyloid nucleation score
NYGVFTSIHVCYDVINVVRV	-0.661 ± 1.1
NYIESFMHSQGCNPFQDSFM	3 ± 0.12
NYIWVLGYSEVGNTIMYTYH	6.224 ± 0.05
NYMYGLNSVKSVGWLSDI	0.069 ± 0.46
NYRFVCWDYISWVMVWTSI	inactive
NYSNFTIKYLNLKRTLLDL	-1.74 ± 0.64
NYVNICFNLKFQVRHST	4.41 ± 0.089
PADPNCIFVIS	-1.25 ± 0.44
PAIYILLWAYSRSSACWLTA	inactive
PCCVKSELGLPQWWSVYL	5.645 ± 0.056
PCFRWSRGRKSCECCHVGYM	0.122 ± 0.25
PCGSCMSQNKSIG	0.167 ± 0.31
PCITLAFPVNKSRF	-0.363 ± 1.1
PCRFTYRRWTG	-0.496 ± 0.41
PCSGSLPRTKTD	-0.167 ± 0.32
PCVPGDYTVAKVAFSTY	-0.011 ± 1.1
PCWCSVLVL	1.51 ± 0.41
PDDCGWVLMFENQFAAAGTP	0.122 ± 0.28
PEGISNGLK	-1.44 ± 0.55
PEQAVFTNNKYIYEVWLTTK	inactive
